# Measured values taken from patent US20220048962.
# Tested on: MBP-CIRTS-1 (ORF5-TBP6.7-SMG6 Pin nuclease fusion) (synthetic fusion (Grapevine virus A ORF5; Homo sapiens U1A-derived TBP6.7; Homo sapiens SMG6))
# Assay: FP filter
# Details: apparent; text states ~50-fold weaker than on-target
substance,measurement,value
non-targeting TAR-hairpin gRNA ; model RNA substrate (R1),Kd,500 nM
